Results published in article PMC6367718 (Cell, 2019).

T1: TRV055-occupied FLAG-AT1R (human, UniProt P30556)
T1 chain 1: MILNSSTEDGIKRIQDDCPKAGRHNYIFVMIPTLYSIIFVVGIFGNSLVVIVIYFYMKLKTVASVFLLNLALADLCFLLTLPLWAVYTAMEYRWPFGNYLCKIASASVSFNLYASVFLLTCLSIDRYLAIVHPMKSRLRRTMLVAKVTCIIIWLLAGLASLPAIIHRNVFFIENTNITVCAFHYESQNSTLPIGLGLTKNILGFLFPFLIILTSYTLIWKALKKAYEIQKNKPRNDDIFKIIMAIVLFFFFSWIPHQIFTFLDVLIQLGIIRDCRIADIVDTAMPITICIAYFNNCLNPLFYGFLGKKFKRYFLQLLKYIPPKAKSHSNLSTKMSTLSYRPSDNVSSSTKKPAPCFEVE
T1 chain 2: GVYIHPF


How the values were obtained:
[1] = target: T1, TRV055-occupied FLAG-AT1R; assay: radioligand binding
crystal structure = target: the molecule itself; assay: crystal structure

Row | Binder | log EC50 (M) of the change in the log IC50 of TRV055 [1] | binding result (crystal structure)
1 | Nb.AT110, purified (VHH) VHH: QVQLQESGGGLVQAGGSLRLSCAASGNIFDADIMGWYRQAPGKERELVASITDGGSTNYADSVKGRFTISRDNAKNTVYLQMNSLKPEDTAVYYCAAIAYPDIPTYFDYDSDYFYWGQGTQVTVSS | -6.6 log M | 
2 | Nb.AT110i1, carboxypeptidase A-treated (for crystallography) (VHH) VHH: QVQLQESGGGLVQAGGSLRLSCAASGNIFDVDIMGWYRQAPGKERELVASITDGGSTDYADSVKGRFTISRDNAKNTVYLQMNSLKPEDTAVYYCAAVAYPDIPTYFDYDSDNFYWGQGTQVTVSS |  | binds
